This note sets out measurements from patent US11629364B2, “Methods for synthesizing anticoagulant polysaccharides” (OPTIMVIA, LLC, priority 2019, dated 2023).

Changes are numbered by the printed parent chain.

B1: SEQ ID NO: 6: engineered aryl sulfate-dependent NST enzyme, mutant of N-sulfotransferase domain of human NDST (protein)
chain: MSEEKDPLWQDPCEDKRHKDIWSKEKTCDRFPKLLIIGPHGTGGHALYLFLGMHPDLSSNYPSSETGEEIQFFNGHNYHKGIDWYMEFFPIPSNTTSDFYFEKSANYFDSEVAPRRAAALLPKAKVLTILINPADRAYSWYQAQRAHDDPVALKYTFHEVITAGSDASSKLRALQNRCLVPGWYATHIERWLSAYHANQILVLDGKLLRTEPAKVMDMVQKFLGVTNTIDYHKTLAFDPKKGFWCQLLEGGKTKCGGKHLGRKYPEMDLDSRAFLKDYYRDHNIELSKLLYKMGQTLPTWLREDLQNTR
modifications: Amino acid sequence encoding for engineered arylsulfate-dependent N-sulfotransferase variant 3
notes: engineered aryl sulfate-dependent NST enzyme, mutant of N-sulfotransferase domain of human NDST
B2: SEQ ID NO: 8: engineered aryl sulfate-dependent NST enzyme, mutant of N-sulfotransferase domain of human NDST (protein)
chain: MSEEKDPLWQDPCEDKRHKDIWSKEKTCDRFPKLLIIGPHGTGGHALYLFLGMHPDLSSNYPSSETFLSIQFFNGHNYHKGIDWYMEFFPIPSNTTSDFYFEHSGNYFDSEVAPRRAAALLPKAKVLTILINPADRAYRAYVWQRAHDDPVALKYTFHEVITAGSDASSKLRALQNRCLVPGWYATHIERWLSAYHANQILVLDGKLLRTEPAKVMDMVQKFLGVTNTIDYHKTLAFDPKKGFWCQLLEGGKTKCLGKSLGSKYPEMDLDSRAFLKDYYRDHNIELSKLLYKMGQTLPTWLREDLQNTR
modifications: Amino acid sequence encoding for engineered arylsulfate-dependent N-sulfotransferase variant 4
notes: as for B1
B3: SEQ ID NO: 4: engineered aryl sulfate-dependent NST enzyme, mutant of N-sulfotransferase domain of human NDST (protein)
chain: MSEEKDPLWQDPCEDKRHKDIWSKEKTCDRFPKLLIIGPSKTGAFLLTHFLGMHPDLSSNYPSSETGHSIQFFNGHNYHKGIDWYMEFFPIPSNTTSDFYFETSSNYFDSEVAPRRAAALLPKAKVLTILINPADRAYSWYQHQRAHDDPVALKYTFHEVITAGSDASSKLRALQNRCLVPGWYATHIERWLSAYHANQILVLDGKLLRTEPAKVMDMVQKFLGVTNTIDYHKTLAFDPKKGFWCQLLEGGKTKCHGKRWGRKYPEMDLDSRAFLKDYYRDHNIELSKLLYKMGQTLPTWLREDLQNTR
modifications: Amino acid sequence encoding for engineered arylsulfate-dependent N-sulfotransferase variant 2
notes: as for B1
B4: SEQ ID NO: 2: engineered aryl sulfate-dependent NST enzyme, mutant of N-sulfotransferase domain of human NDST (protein)
chain: MSEEKDPLWQDPCEDKRHKDIWSKEKTCDRFPKLLIIGPQKTGAWALYHFLGMHPDLSSNYPSSETHGSIQFFNGHNYHKGIDWYMEFFPIPSNTTSDFYFEKSANYFDSEVAPRRAAALLPKAKVLTILINPADRAYSWYQHQRAHDDPVALKYTFHEVITAGSDASSKLRALQNRCLVPGWYATHIERWLSAYHANQILVLDGKLLRTEPAKVMDMVQKFLGVTNTIDYHKTLAFDPKKGFWCQLLEGGKTKCLGKSHGRKYPEMDLDSRAFLKDYYRDHNIELSKLLYKMGQTLPTWLREDLQNTR
modifications: Amino acid sequence encoding for engineered arylsulfate-dependent N-sulfotransferase variant 1
notes: as for B1
B5: SEQ ID NO: 12: engineered aryl sulfate-dependent NST enzyme, mutant of N-sulfotransferase domain of human NDST (protein)
chain: B4 chain with Q40A, A46L, Y48H, G68S, K103T, L256A, G257H, S259G, H260L
modifications: Amino acid sequence encoding for engineered arylsulfate-dependent N-sulfotransferase variant 6
notes: as for B1
B6: SEQ ID NO: 10: engineered aryl sulfate-dependent NST enzyme, mutant of N-sulfotransferase domain of human NDST (protein)
chain: MSEEKDPLWQDPCEDKRHKDIWSKEKTCDRFPKLLIIGPHKTGVHALYLFLGMHPDLSSNYPSSETGNHIGFFGGHNYHKGIDWYMEFFPIPSNTTSDFYFEKSAWYFDSEVAPRRAAALLPKAKVLTILINPADRAYSWYQHQRAHDDPVALKYTFHEVITAGSDASSKLRALQNRCLVPGWYATHIERWLSAYHANQILVLDGKLLRTEPAKVMDMVQKFLGVTNTIDYHKTLAFDPKKGFWCQLLEGGKTKCLGKSVGRKYPEMDLDSRAFLKDYYRDHNIELSKLLYKMGQTLPTWLREDLQNTR
modifications: Amino acid sequence encoding for engineered arylsulfate-dependent N-sulfotransferase variant 5
notes: as for B1
B7: SEQ ID NO: 35: mutant of N-sulfotransferase domain of pig NDST carrying the SEQ ID NO: 2 mutations (protein)
chain: MSEEKDPLWQDPCEDKRHKDIWSKEKTCDRFPKLLIIGPQKTGAWALYHFLGLHPDLSSNYPSSETHGSIQFFNGHNYHKGIDWYMDFFPIPSNTTSDFYFEKSANYFDSDVAPRRAAALLPKAKVLTILINPADRAYSWYQHQRAHDDPAALRYTFHEVITAGPDASLKLRALQNRCLVPGWYATHLERWLGAFHANQILVLDGKLLRTEPARVMDTVQKFLGVTNTIDYHKTLAFDPKKGFWCQLLEGGKTKCLGRSHGRKYPDMDPDSRAFLRDYYRDHNIELSKLLYKMGQTLPTWLREELQNTR
modifications: Amino acid sequence encoding for engineered arylsulfate-dependent N-sulfotransferase variant 9

The first data set is described as follows: NST activity: N-sulfated products detected by SAX-HPLC after lyase digestion. Conditions: PNS or NCS as sulfo donor, N-deacetylated heparosan acceptor, 37° C. overnight. The class given is biochemical. The method, then: A study was conducted in accordance with embodiments of the present disclosure to confirm NST activity of enzymes comprising the amino acid sequence of SEQ ID NO: 2, SEQ ID NO: 4, SEQ ID NO: 6, SEQ ID NO: 8, SEQ ID NO: 10, or SEQ ID NO: 12 by detecting the presence of N-sulfated polysaccharide products formed as a result of their sulfotransfer reaction, using mass spectrometry (MS). Each engineered enzyme was purified according to the procedure of Example 1. Sulfotransferase activity was monitored in 100 μL reactions containing 50 μM of enzyme. To each purified protein solution, 20 mg of an aryl sulfate compound (either PNS or NCS) was dissolved in 2 mL of reaction buffer (50 mM IVIES pH 7.0, 2 mM CaCl2)), added to the protein solution, and incubated at 37° C. for 10 min. 2.5 mL of 2 mg/mL solution of N-deacetylated heparosan was added to protein/donor solution and incubated overnight at 37° C. The N-deacetylated heparosan was synthesized according to the protocol described in Balagurunathan, K. et al (eds.) (2015), Glycosaminoglycans: Chemistry and Biology, Methods in Molecular Biology, vol. 1229, DOI 10.1007/978-1-4939-1714-3_2, ©Springer Science+Business Media, New York, pp. 11-19 (section 3.1). To purify the N-sulfated product, the incubated reaction mixture was centrifuged the following day at 5,000×g for 10 min. The filter was washed once with 2 mL water, and centrifuged again. The filtrate was added to a 1K MWCO Dialysis membrane, dialyzed for 2 days in Milli-Q water, with water changes at 1 h, 2 h, 8 h, 16 h, 32 h, and then lyophilized.
The lyophilized N-sulfated products from each reaction were subsequently digested with a mixture of three carbon-oxygen lyases comprising the amino acid sequences of SEQ ID NO: 30, SEQ ID NO: 31, and SEQ ID NO: 32, which catalyze the β-eliminative cleavage of heparosan-based polysaccharides. Such lyases are available from New England Biolabs, among other chemical and biological commercial entities. 1 μL of each lyase was incubated with 50 μg of the lyophilized sulfated polysaccharide product and the provided digestion buffer, and incubated over 24 hours according to the packaged instructions provided by New England Biolabs with each lyase. After digestion, the lyase enzymes were inactivated by heating to 100° C. for 5 minutes. Samples were centrifuged at 14,000 rpm for 30 minutes before introduction to a strong anion exchange, high performance liquid chromatography (SAX) analysis. SAX analysis was performed on a Dionex Ultimate 3000 LC system interface. Separation was carried out on a 4.6×250 mm Waters Spherisorb analytical column with 5.0 μm particle size at 45° C. Mobile phase solution A was 2.5 mM sodium phosphate, pH 3.5, while mobile phase solution B was 2.5 mM sodium phosphate, pH 3.5, and 1.2 M Sodium perchlorate. After each sample was loaded onto the column, mobile phase solutions were applied to the column at a ratio of 98% mobile phase solution A and 2% mobile phase solution B for five minutes at a flow rate of 1.4 mL/min. After five minutes, a linear gradient of increasing mobile phase solution B was applied until the ratio of mobile phase solution A to mobile phase solution B was 50:50.
Turning to B1, the “NST sulfotransferase activity with aryl sulfate compounds” value is “activity with both aryl sulfate compounds”.
With B2, the “NST sulfotransferase activity with aryl sulfate compounds” value was “activity with both aryl sulfate compounds”.
Still for that read-out and setting: as for B3, the entry is “activity with NCS only”; as for B4, “activity with NCS only”; as for B5, “activity with PNS only”.
Same read-out and setting: under B6 stands “activity with NCS only”.

Staying with this data set, now noted: procedures of Example 2; expected.
As to B7, the “NST activity: N-sulfated products by SAX” value was “confirm the presence of N-sulfated polysaccharide products”.
